Values of other authors, collected in article PMC6558399.

Target: Galectin-1 (Homo sapiens) (UniProt P09382)

- Kd: 7 µM
Substance: Galectin-1 (from UniProt P09382)
